Results published in patent publication US20240058465A1 (SUTRO BIOPHARMA, published 2024).
Residue numbers refer to the chain shown, from its start.

B1: SRP1987-C05 parent (antibody, IgG1, V domains shown)
VH: EVQLVESGGGLVQPGGSLRLSCAASGFNISDYDIHWVRQAPGKGLEWVGGIDPDDGSTDYADSVKGRFTISADTSKNTAYLQMNSLRAEDTAVYYCARDYGVFDYWGQGTLVTVSS
VL: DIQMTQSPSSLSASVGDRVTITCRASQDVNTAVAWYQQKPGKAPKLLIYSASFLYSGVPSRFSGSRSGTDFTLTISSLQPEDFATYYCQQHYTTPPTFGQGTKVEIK
notes: IgG1 with trastuzumab LC; HIS- and FLAG-tagged; cell-free expressed
B2: SRP2188-F06 (antibody, IgG1, V domains shown)
VH: B1 VH with S30L, S57A
VL: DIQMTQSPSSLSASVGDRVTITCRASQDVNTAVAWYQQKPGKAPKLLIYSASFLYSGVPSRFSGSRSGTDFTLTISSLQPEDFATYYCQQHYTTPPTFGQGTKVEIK
notes: as for B1
B3: SRP2188-B07 (antibody, IgG1, V domains shown)
VH: B1 VH with S30H, D31S, Y32H, G50W, D52N, S57D, D59Y, T69A, Q108R
VL: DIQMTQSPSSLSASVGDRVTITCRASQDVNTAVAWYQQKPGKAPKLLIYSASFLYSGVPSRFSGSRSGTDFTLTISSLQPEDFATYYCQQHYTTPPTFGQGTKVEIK
notes: as for B1
B4: SRP2188-C07 (antibody, IgG1, V domains shown)
VH: B1 VH with S30V, D31R, G50W, D52N, S57D, D59Y
VL: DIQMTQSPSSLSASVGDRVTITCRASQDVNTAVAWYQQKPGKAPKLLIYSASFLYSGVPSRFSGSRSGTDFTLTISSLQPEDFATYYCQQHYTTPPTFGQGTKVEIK
notes: as for B1
B5: SRP2188-F11 (antibody, IgG1, V domains shown)
VH: B1 VH with S30T, D31G, D54E, S57A
VL: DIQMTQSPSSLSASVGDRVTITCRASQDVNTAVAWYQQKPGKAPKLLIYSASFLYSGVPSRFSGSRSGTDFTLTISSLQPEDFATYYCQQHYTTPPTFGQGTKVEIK
notes: as for B1
B6: SRP2188-D09 (antibody, IgG1, V domains shown)
VH: B1 VH with S30R, G49V, D54G, Y100F
VL: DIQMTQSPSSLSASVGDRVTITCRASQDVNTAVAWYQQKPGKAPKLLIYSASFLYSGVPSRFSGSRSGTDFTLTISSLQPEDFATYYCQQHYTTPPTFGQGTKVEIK
notes: as for B1
B7: SRP2188-D03 (antibody, IgG1, V domains shown)
VH: B1 VH with D54H, F103Y
VL: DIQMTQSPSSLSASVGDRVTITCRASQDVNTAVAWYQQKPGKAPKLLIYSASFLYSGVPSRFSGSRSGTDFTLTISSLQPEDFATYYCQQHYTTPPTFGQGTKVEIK
notes: as for B1
B8: SRP2188-A09 (antibody, IgG1, V domains shown)
VH: B1 VH with S30I, D31N, G50W, D52N, S57D, D59Y
VL: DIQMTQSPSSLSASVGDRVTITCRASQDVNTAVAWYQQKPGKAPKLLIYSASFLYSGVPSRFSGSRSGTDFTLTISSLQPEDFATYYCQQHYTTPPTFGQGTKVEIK
notes: as for B1
B9: SRP2188-E01 (antibody, IgG1, V domains shown)
VH: B1 VH with S30G, G49V, D54Q, S57A
VL: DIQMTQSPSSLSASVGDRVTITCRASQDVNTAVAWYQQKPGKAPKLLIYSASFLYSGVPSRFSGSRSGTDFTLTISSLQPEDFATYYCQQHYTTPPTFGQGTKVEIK
notes: as for B1
B10: SRP2188-D01 (antibody, IgG1, V domains shown)
VH: B1 VH with S30K, D31S, G50W, D52N, D54Y, S57D, D59Y
VL: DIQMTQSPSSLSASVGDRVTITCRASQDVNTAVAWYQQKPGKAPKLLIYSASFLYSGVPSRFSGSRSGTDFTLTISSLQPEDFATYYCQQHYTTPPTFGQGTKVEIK
notes: as for B1
B11: SRP2188-D04 (antibody, IgG1, V domains shown)
VH: B1 VH with D54A, F103Y
VL: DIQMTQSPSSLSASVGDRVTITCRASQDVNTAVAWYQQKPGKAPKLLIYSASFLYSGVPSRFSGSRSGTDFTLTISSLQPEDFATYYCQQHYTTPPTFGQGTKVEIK
notes: IgG1 with trastuzumab LC; HIS- and FLAG-tagged; cell-free expressed in the screen; also called mAb 42
B12: SRP2188-C03 (antibody, IgG1, V domains shown)
VH: B1 VH with S30N, D31S, G50W, D52N, S57D, D59Y
VL: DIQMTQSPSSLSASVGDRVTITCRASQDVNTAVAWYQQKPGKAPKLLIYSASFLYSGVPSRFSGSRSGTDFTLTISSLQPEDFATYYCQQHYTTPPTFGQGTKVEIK
notes: as for B1
B13: SRP2188-A03 (antibody, IgG1, V domains shown)
VH: B1 VH with S30R, G50W, D52N, S57D, D59Y
VL: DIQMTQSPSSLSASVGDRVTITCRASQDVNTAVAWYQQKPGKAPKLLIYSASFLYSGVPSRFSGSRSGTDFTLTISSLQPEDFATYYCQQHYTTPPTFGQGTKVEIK
notes: as for B1
B14: SRP2188-G03 (antibody, IgG1, V domains shown)
VH: B1 VH with S30V, G49V, D54R, Y100F
VL: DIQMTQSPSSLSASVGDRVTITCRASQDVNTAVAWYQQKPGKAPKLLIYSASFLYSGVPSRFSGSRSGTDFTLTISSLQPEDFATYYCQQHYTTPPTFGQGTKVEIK
notes: as for B1
B15: SRP2188-E03 (antibody, IgG1, V domains shown)
VH: B1 VH with S30R, G49A, F103Y
VL: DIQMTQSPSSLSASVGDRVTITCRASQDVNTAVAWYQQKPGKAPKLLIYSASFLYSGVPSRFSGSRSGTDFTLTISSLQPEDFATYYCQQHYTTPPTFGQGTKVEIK
notes: as for B1
B16: SRP2188-B05 (antibody, IgG1, V domains shown)
VH: B1 VH with S30P, G50V, S57W, D59H
VL: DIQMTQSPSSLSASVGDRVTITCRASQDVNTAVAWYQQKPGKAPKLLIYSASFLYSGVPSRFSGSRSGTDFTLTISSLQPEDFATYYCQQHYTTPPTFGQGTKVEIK
notes: as for B1
B17: SRP2188-E04 (antibody, IgG1, V domains shown)
VH: B1 VH with G49A, D54Q, T91A, Y100F
VL: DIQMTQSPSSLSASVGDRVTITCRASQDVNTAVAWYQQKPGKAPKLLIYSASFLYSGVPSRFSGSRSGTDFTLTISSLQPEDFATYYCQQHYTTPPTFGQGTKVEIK
notes: as for B1
B18: SRP2188-F08 (antibody, IgG1, V domains shown)
VH: B1 VH with S30P, Y32F, D33E, G49A, G50R, D52E, S57A
VL: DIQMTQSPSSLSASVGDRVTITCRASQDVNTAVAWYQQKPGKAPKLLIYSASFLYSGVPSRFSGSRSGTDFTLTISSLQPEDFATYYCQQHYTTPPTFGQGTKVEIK
notes: as for B1
B19: SRP2188-G02 (antibody, IgG1, V domains shown)
VH: B1 VH with S30V, D31G, G42S, D54N, S57A
VL: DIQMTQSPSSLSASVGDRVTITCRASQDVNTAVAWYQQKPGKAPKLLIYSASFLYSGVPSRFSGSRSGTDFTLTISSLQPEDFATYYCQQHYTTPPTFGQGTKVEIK
notes: as for B1
B20: SRP2188-C09 (antibody, IgG1, V domains shown)
VH: B1 VH with S30N, D31S, G50W, D52N, D54H, S57D, D59Y, K65T
VL: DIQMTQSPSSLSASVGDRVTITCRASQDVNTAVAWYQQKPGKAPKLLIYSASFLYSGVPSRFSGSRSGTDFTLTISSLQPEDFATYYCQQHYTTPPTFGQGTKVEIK
notes: as for B1
B21: SRP2188-A07 (antibody, IgG1, V domains shown)
VH: B1 VH with S30H, D31H, G50W, D52N, S57D, D59Y
VL: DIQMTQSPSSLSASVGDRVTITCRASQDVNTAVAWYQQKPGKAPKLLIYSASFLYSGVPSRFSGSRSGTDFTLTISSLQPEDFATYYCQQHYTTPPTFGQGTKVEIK
notes: as for B1
B22: SRP2188-B03 (antibody, IgG1, V domains shown)
VH: B1 VH with D31S, G50A, D54G, S57A, F103Y
VL: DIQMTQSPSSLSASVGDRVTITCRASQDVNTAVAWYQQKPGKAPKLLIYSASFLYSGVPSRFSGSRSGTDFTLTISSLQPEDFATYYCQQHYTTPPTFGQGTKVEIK
notes: as for B1
B23: SRP2188-D06 (antibody, IgG1, V domains shown)
VH: B1 VH with S30R, D54N, S57A
VL: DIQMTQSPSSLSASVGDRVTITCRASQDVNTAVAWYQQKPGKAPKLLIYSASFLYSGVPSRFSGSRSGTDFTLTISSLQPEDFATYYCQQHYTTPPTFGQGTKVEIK
notes: as for B1
B24: SRP2188-A05 (antibody, IgG1, V domains shown)
VH: B1 VH with S30K, D31R, G50W, D52N, S57D, D59Y
VL: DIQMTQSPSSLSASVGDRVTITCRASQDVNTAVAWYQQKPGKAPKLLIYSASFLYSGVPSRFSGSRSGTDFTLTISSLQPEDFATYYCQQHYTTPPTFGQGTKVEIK
notes: as for B1
B25: SRP2188-G01 (antibody, IgG1, V domains shown)
VH: B1 VH with D54N, S57A
VL: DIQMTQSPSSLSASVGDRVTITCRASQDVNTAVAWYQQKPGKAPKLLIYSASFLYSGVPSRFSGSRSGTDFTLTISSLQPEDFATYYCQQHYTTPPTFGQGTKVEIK
notes: as for B1

The binders below were run against T1, human ROR1 (hROR1) expressed on cells (human, UniProt Q01973 30-937) (assay: cell-based or functional assay).

In order of falling “Mino Nb-PBD, drug-conjugated 2° antibody Cell Killing IC50” value:
1. B22  0.0017 nM
2. B9  0.0015 nM
3. B23  0.0015 nM
4. B25  0.0015 nM
5. B3  0.0014 nM
6. B11  0.0014 nM
7. B6  0.0013 nM
8. B15  0.0013 nM
9. B10  0.0011 nM
10. B12  0.0011 nM
11. B16  0.0011 nM
12. B13  0.001 nM
13. B24  0.001 nM
14. B5  0.00099 nM
15. B14  0.00097 nM
16. B20  0.00091 nM
17. B7  0.00089 nM
18. B8  0.00088 nM
19. B17  0.00087 nM
20. B4  0.00085 nM
21. B1  0.00077 nM
22. B18  0.00071 nM
23. B2  0.00055 nM
24. B21  0.00048 nM
25. B19  0.00047 nM

In order of rising “Mino Nb-PBD, drug-conjugated 2° antibody Cell Killing Span” value:
1. B25  61%
2. B15  65%
3. B17  66%
4. B1  68%
5. B5  68%
6. B9  69%
7. B11  69%
8. B23  69%
9. B6  70%
10. B14  70%
11. B16  70%
12. B4  71%
13. B8  71%
14. B12  71%
15. B13  71%
16. B20  71%
17. B22  71%
18. B24  71%
19. B3  72%
20. B7  72%
21. B10  72%
22. B19  74%
23. B2  75%
24. B18  75%
25. B21  75%

The binders below were run against T1, human ROR1 (hROR1) expressed on cells (assay: flow cytometry, HCT116-hROR1 cells).

In order of rising “Bmax (MFI)” value:
1. B16  8510 MFI
2. B3  8760 MFI
3. B19  8920 MFI
4. B10  8940 MFI
5. B14  8960 MFI
6. B6  8970 MFI
7. B18  9030 MFI
8. B24  9030 MFI
9. B20  9080 MFI
10. B7  9110 MFI
11. B4  9160 MFI
12. B21  9330 MFI
13. B9  9370 MFI
14. B8  9380 MFI
15. B5  9480 MFI
16. B1  9500 MFI
17. B22  9560 MFI
18. B12  9600 MFI
19. B11  9690 MFI
20. B13  9700 MFI
21. B25  9750 MFI
22. B23  9810 MFI
23. B17  9860 MFI
24. B2  10200 MFI
25. B15  10300 MFI

In order of rising Kd:
1. B15  0.02 nM
2. B18  0.02 nM
3. B19  0.02 nM
4. B2  0.03 nM
5. B5  0.03 nM
6. B8  0.03 nM
7. B12  0.03 nM
8. B13  0.03 nM
9. B14  0.03 nM
10. B16  0.03 nM
11. B17  0.03 nM
12. B20  0.03 nM
13. B1  0.04 nM
14. B4  0.04 nM
15. B7  0.04 nM
16. B10  0.04 nM
17. B11  0.04 nM
18. B22  0.04 nM
19. B23  0.04 nM
20. B24  0.04 nM
21. B25  0.05 nM
22. B6  0.06 nM
23. B9  0.06 nM
24. B3  0.07 nM
25. B21  0.07 nM

What follows are binders tested against T2, human ROR1-ECD (human, UniProt Q01973 30-406) (assay: SPR (Biacore), antibody captured by anti-Fc, human ROR1-ECD analyte).
T2 construct: Bought protein; also called hROR1; ROR1-extracellular domain
Method: Anti-Fc polyclonal antibodies were immobilized onto a CMS chip (GE Life Sciences) using amine coupling chemistry (from Amine Coupling Kit, GE Life Sciences). The immobilization steps were carried out at a flow rate of 25 μL/min in 1×HBS-EP+buffer (GE Life Sciences; 10× Stock diluted before use). The sensor surfaces were activated for 7 min with a mixture of NHS (0.05 M) and EDC (0.2 M). The Anti-Fc antibodies were injected over all 4 flow cells at a concentration of 25 ug/ml in 10 mM sodium acetate, pH 4.5, for 7 min. Ethanolamine (1 M, pH 8.5) was injected for 7 min to block any remaining activated groups.
Off-rate and kinetic binding experiments were performed at 25° C. using 1×HBS-EP+buffer. Test and control antibodies were injected over the anti-Fc surface at concentrations of 5-10 μg/mL for 12 seconds at a flow rate of 10 μL/min on flow cells 2, 3 and 4, followed by a buffer wash for 30 seconds at the same flow rate. […] After capturing ligand (antibody) on the anti-Fc surface, the analyte (hROR1, Fz or Kr domains, Acro Biosystems, Delaware) was bound for 180 seconds, followed by a 600 second dissociation phase at a flow rate of 50 μL/min. Between each ligand capture and analyte binding cycle, regeneration was carried out using 2 injections of 10 mM Glycine pH 2.0 for 30 seconds at 30 μL/min, followed by a 30 second buffer wash step.

In order of falling Kd:
1. B7  0.838 nM
2. B9  0.827 nM
3. B16  0.757 nM
4. B1  0.694 nM
5. B23  0.628 nM
6. B21  0.609 nM
7. B17  0.604 nM
8. B13  0.508 nM
9. B20  0.504 nM
10. B19  0.49 nM
11. B15  0.464 nM
12. B18  0.428 nM
13. B11  0.426 nM
14. B8  0.424 nM
15. B2  0.384 nM
16. B14  0.373 nM
17. B6  0.366 nM
18. B22  0.346 nM
19. B5  0.313 nM
20. B24  0.227 nM
21. B3  0.221 nM

In order of falling koff:
1. B1  0.000681 s⁻¹
2. B16  0.000671 s⁻¹
3. B23  0.000563 s⁻¹
4. B7  0.00055 s⁻¹
5. B17  0.000468 s⁻¹
6. B19  0.000443 s⁻¹
7. B11  0.000423 s⁻¹
8. B18  0.000422 s⁻¹
9. B20  0.00042 s⁻¹
10. B21  0.000406 s⁻¹
11. B8  0.000401 s⁻¹
12. B13  0.000389 s⁻¹
13. B9  0.000387 s⁻¹
14. B2  0.000357 s⁻¹
15. B22  0.000334 s⁻¹
16. B15  0.000333 s⁻¹
17. B14  0.000316 s⁻¹
18. B6  0.00028 s⁻¹
19. B5  0.000249 s⁻¹
20. B24  0.000243 s⁻¹
21. B3  0.000194 s⁻¹

In order of rising kon:
1. B9  468000 M⁻¹ s⁻¹
2. B7  656000 M⁻¹ s⁻¹
3. B21  666000 M⁻¹ s⁻¹
4. B15  718000 M⁻¹ s⁻¹
5. B6  766000 M⁻¹ s⁻¹
6. B13  766000 M⁻¹ s⁻¹
7. B17  775000 M⁻¹ s⁻¹
8. B5  794000 M⁻¹ s⁻¹
9. B20  833000 M⁻¹ s⁻¹
10. B14  846000 M⁻¹ s⁻¹
11. B3  880000 M⁻¹ s⁻¹
12. B16  887000 M⁻¹ s⁻¹
13. B23  897000 M⁻¹ s⁻¹
14. B19  905000 M⁻¹ s⁻¹
15. B2  931000 M⁻¹ s⁻¹
16. B8  944000 M⁻¹ s⁻¹
17. B22  965000 M⁻¹ s⁻¹
18. B1  981000 M⁻¹ s⁻¹
19. B18  987000 M⁻¹ s⁻¹
20. B11  994000 M⁻¹ s⁻¹
21. B24  1.07e+06 M⁻¹ s⁻¹
